Source: the RNAGym collection of RNA variant scans (doi:10.7554/elife.80360)

B1: Hairpin Ribozyme (parent)
chain: GUCCUCUUUCACGUGCGCGUGAAAGAGAGAAGUGAACCAGAGAAACACACGUUGUGGUAUAUUACCUGGUA

Variants of: B1
Assay: self-cleavage, relative activity (ratio to wild type); higher = more cleavage; co-transcriptional

Compared with GUCCUCUUUCACGUGCGCGUGAAAGAGAGAAGUGAUCCAGAGAAACACACGUUGCGGUAUAUUACCUGGUA, GUCCUCUUUCACGUGCGCGUGAAAGAGAGAAGUGAUCCAGAGAAACACACGUUGGGGUAUAUUACCUGGUA is higher in self-cleavage: 0.124 for the first, 0.163 for the second.

Going from GUCCUCUUUCACGUGCGCGUGAAAGAGAGAAGUGAUCCAGAGAAACACACGUUCUGGUAUAUUACCUGGUA to GUCCUCUUUCACGUGCGCGUGAAAGAGAGAAGUGAUCCAGAGAAACACACGUUAUGGUAUAUUACCUGGUA, the self-cleavage falls from 0.278 to 0.212.

Going from GUCCUCUUUCACGUGCGCGUGAAAGAGAGAAGUGAAAGAGAGAAACACACGUUGUGGUAUAUUACCUGGUA to GUCCUCUUUCACGUGCGCGUGAAAGAGAGAAGUGAAACAGAGAAUCACACGUUGUGGUAUAUUACCUGGUA, the self-cleavage falls from 0.31 to 0.169.

First: GUCCUCUUUCACGUGCGCGUGAAAGAGAGAAGUGAAACAGAGAAACACACGUUGUGGUAUAUUACCUGAUA
Second: GUCCUCUUUCACGUGCGCGUGAAAGAGAGAAGUGAAACAGAGAAACAAACGUUGUGGUAUAUUACCUGGUA
The self-cleavage of the first is higher: 0.434 for the first, 0.189 for the second.

Compared with GUCCUCUUUCACGUGCGCGUGAAAGAGAGAAGUGAAACAGAGAAACACACGUUGUGGUGUAUUACCUGGUA, GUCCUCUUUCACGUGCGCGUGAAAGAGAGAAGUGAAACAGAGAAACACACGUUGUGGUCUAUUACCUGGUA is lower in self-cleavage: 0.241 for the first, 0.137 for the second.

Compared with GUCCUCUUUCACGUGCGCGUGAAAGAGAGAAGUGAAACAGAGAAACACACGUUGUGGUUUAUUACCUGGUA, GUCCUCUUUCACGUGCGCGUGAAAGAGAGAAGUGAAACAGAGAAACUCACGUUGUGGUAUAUUACCUGGUA is higher in self-cleavage: 0.0631 for the first, 0.19 for the second.

First: GUCCUCUUUCACGUGCGCGUGAAAGAGAGAAGUGAAACAGAGAAACCCACGUUGUGGUAUAUUACCUGGUA
Second: GUCCUCUUUCACGUGCGCGUGAAAGAGAGAAGUGAAGCAGAGAAACACACGUUGUGGUAUGUUACCUGGUA
The self-cleavage of the first is lower: 0.108 for the first, 0.155 for the second.

First: GUCCUCUUUCACGUGCGCGUGAAAGAGAGAAGUGAAACAGAGAAAAACACGUUGUGGUAUAUUACCUGGUA
Second: GUCCUCUUUCACGUGCGCGUGAAAGAGAGAAGUGAAACAGAGAAAGACACGUUGUGGUAUAUUACCUGGUA
The self-cleavage of the first is higher: 0.179 for the first, 0.0923 for the second.

Going from GUCCUCUUUCACGUGCGCGUGAAAGAGAGAAGUGAAACAGAGCAACACACGUUGUGGUAUAUUACCUGGUA to GUCCUCUUUCACGUGCGCGUGAAAGAGAGAAGUGAAACAGAGUAACACACGUUGUGGUAUAUUACCUGGUA, the self-cleavage rises from 0.0917 to 0.15.

Compared with GUCCUCUUUCACGUGCGCGUGAAAGAGAGAAGUGAAACAGAGAAACACACGUUGUGGUAUAGUACCUGGUA, GUCCUCUUUCACGUGCGCGUGAAAGAGAGAAGUGAAACAGAGAAACACACGUUGUGGUAUAUUACCCGGUA is lower in self-cleavage: 0.127 for the first, 0.0944 for the second.

Going from GUCCUCUUUCACGUGCGCGUGAAAGAGAGAAGUGAAACAGAGAAACACACGUUGUGGUAUAUAACCUGGUA to GUCCUCUUUCACGUGCGCGUGAAAGAGAGAAGUGAAACAGAGAAACACACGUUGUGGUAUAUCACCUGGUA, the self-cleavage falls from 0.163 to 0.131.

First: GUCCUCUUUCACGUGCGCGUGAAAGAGAGAAGUGAAACAGAGAAACACACGUUGUGGUAUAUUGCCUGGUA
Second: GUCCUCUUUCACGUGCGCGUGAAAGAGAGAAGUGAAGCAGAGAAACGCACGUUGUGGUAUAUUACCUGGUA
The self-cleavage of the first is higher: 0.187 for the first, 0.15 for the second.

Compared with GUCCUCUUUCACGUGCGCGUGAAAGAGAGAAGUGAAACAGAGAAACACACGUUGUGGUAUAUUACCUGGAA, GUCCUCUUUCACGUGCGCGUGAAAGAGAGAAGUGAAACAGAGAAACACACGUUGUGGUAUAUUACCUGGCA is higher in self-cleavage: 0.368 for the first, 0.438 for the second.

Compared with GUCCUCUUUCACGUGCGCGUGAAAGAGAGAAGUGAAACAGAGAGACACACGUUGUGGUAUAUUACCUGGUA, GUCCUCUUUCACGUGCGCGUGAAAGAGAGAAGUGAAACAGAGACACACACGUUGUGGUAUAUUACCUGGUA is lower in self-cleavage: 0.208 for the first, 0.203 for the second.

First: GUCCUCUUUCACGUGCGCGUGAAAGAGAGAAGUGAAACAGAGAUACACACGUUGUGGUAUAUUACCUGGUA
Second: GUCCUCUUUCACGUGCGCGUGAAAGAGAGAAGUGAAGCCGAGAAACACACGUUGUGGUAUAUUACCUGGUA
The self-cleavage of the first is lower: 0.109 for the first, 0.163 for the second.

First: GUCCUCUUUCACGUGCGCGUGAAAGAGAGAAGUGAUCCAGAGAAACACACGUUGUGGUAUAUUAGCUGGUA
Second: GUCCUCUUUCACGUGCGCGUGAAAGAGAGAAGUGAAACAGAGAAACACACGUUGCGGUAUAUUACCUGGUA
The self-cleavage of the first is higher: 0.106 for the first, 0.1 for the second.

First: GUCCUCUUUCACGUGCGCGUGAAAGAGAGAAGUGAUCCAGAGAAACACACGUUGUGGUAUCUUACCUGGUA
Second: GUCCUCUUUCACGUGCGCGUGAAAGAGAGAAGUGAUCCAGAGAAACACACGUUGUGGUUUAUUACCUGGUA
The self-cleavage of the first is higher: 0.196 for the first, 0.132 for the second.

Going from GUCCUCUUUCACGUGCGCGUGAAAGAGAGAAGUGAUCCAGACAAACACACGUUGUGGUAUAUUACCUGGUA to GUCCUCUUUCACGUGCGCGUGAAAGAGAGAAGUGAUCCAGAGAAACACACGUUGUGGUAGAUUACCUGGUA, the self-cleavage rises from 0.234 to 0.246.

Compared with GUCCUCUUUCACGUGCGCGUGAAAGAGAGAAGUGAUCCAGAGAAACACACGUUGUGGUACAUUACCUGGUA, GUCCUCUUUCACGUGCGCGUGAAAGAGAGAAGUGAUCCAGAGAAACACACGUUGUGGUAUAUUUCCUGGUA is lower in self-cleavage: 0.804 for the first, 0.165 for the second.
